Experimental data: the DeepSol protein solubility set

Assay: soluble on expression in E. coli; label from the status in PepcDB or PDB records

Sequence | soluble on expression in E. coli
MGSDKIHHHHHHMKVLHLIDSGGLYGAERMLLALVAEQIQQGLEPMILSAGEQGIHQKPLEIEAEKLGLPLVVWRMTPGLNYPETRKICEWAEHWGVDLVHSHGYKFNILMSLFSRFSRKVPVVSTLHGYVHAPRFSRMWVYELLDRLAISRLDGVIMVGAAMKKELSTGLIRPRRLTTIRNGLAVDDTQRKATEPLPEALEEFFSTHEPVILGVGRLSKEKGFSHLVDSFREIKQSAPKAGLLIVGDGMLRKDLEDQVARLGLGSDVCLPGYCDNVPALMARSSALVISSSTEGLPITLLEAMAVRLPVVSTDVGEISFVLDEGDSGVLVKDPASELVDAIELVLNETEATHRKTEQAFHKVSGELSARSMAEQYLRVYNGVVAS | not soluble
MAHHHHHHMSHEGAPQGEYVAILDAGSQYGKVIDRKVRELHVETSILSLNTPAEKLRNDANLKGIIISGGPSSVNDATSLAYDRAIFSMGKPVLGICYGMQMLTELYGGEVCRGKVREDGQDNIQVDTSSPIFAGLESTEAVLLTHGDSITAVGSELKVIARSSAGIISAVQHRSRPLFGVQFHPEVELTVSGKTIFKNFLQLCRCNFSFTMEDREAVALRLIRERTSGGQKVLCLASGGVDSTVCAVLLLKALGPERVVCIHIDHGFMRLNESVQAVEALNAAGVRVHLVKAQEDFAQASTEMTAKGSRAAYTTNKLREVTDPEEKRNIIGNTFMTVCDRVIKELQLDVENLLLAQGTLRPDLIESGSKYASVNAAAIKTHHNDTAVVRLLRDAGRIIEPLCDYHKDEVRELGARLGIPCRLLERQPFPGPGLAIRTLCTDGTPFRDGNFEDTQTTVKRVCMGADASSAEVAALAQKATLSACILPVRTVGVQGDGRTYAYAAALSMQTFPTAEQWATLIQLAKEIPKTAHAVNRVVFMFGPPQSESPSTVTPTYLTTDVLEKLRVADDKVNSILMKHQLVRSLSQVPIILIPIGFDKAGGYSVVVRTFLTNDFMTGIPATPGTAFMPLAVLEEIFNEVQKLEFVGRVMYDLTAKPPGTTEWE | not soluble
MGSDKIHHHHHHMYAAHPIKPLKAPKLKTQFLRRVFVGASIRRWNDQACPLEFVELDKQAHKAMIAYLLAKDLKDRGNDLDLDLLIKFFCFEFLERLVLTDIKPPIFYALQQTHSQELASYVVQSLQDEISMYFSLEELKEYLSHRPQILETQILESAHFYASKWEFDIIYHFNPNMYGVKEIKDKIDKQLHNNEHLFEGLFGEKEDLKKLVSMFGQLRFQKRWSQTPRVPQTSVLGHTLCVALMGYLLSFDLKACKSMRINHFLGGLFHDLPEILTRDIITPIKQSVAGLDHCIKEIEKKEMQNKVYSFVSLGVQEDLKYFTENEFKNRYKDKSNKIIFTKDAEELFTLYNSDEYLGVCGELLKVCDHLSAFLEAQISLSHGISSNDLIKGAQNLLELRSQTELLDLDLGKLFRDFK | not soluble
SLLPSFFPCCRCKWSATGCGTCSTQDCEGICKMTSGEQAKTPLQAPILLTNVKPVGFGKGASQSSTDILIGGDGKIAAVGSALQAPADTQRIDAKGAFISPGWVDLHVHIWHGGTDISIRPSECGAERGVTTLVDAGSAGEANFHGFREYIIEPSRERIKAFLNLGSIGLVACNRVPELRDIKDIDLDRILECYAENSEHIVGLKVRASHVITGSWGVTPVKLGKKIAKILKVPMMVHVGEPPALYDEVLEILGPGDVVTHCFNGKSGSSIMEDEDLFNLAERCAGEGIRLDIGHGGASFSFKVAEAAIARGLLPFSISTDLHGHSMNFPVWDLATTMSKLLSVDMPFENVVEAVTRNPASVIRLDMENRLDVGQRADFTVFDLVDADLEATDSNGDVSRLKRLFEPRYAVIGAEAIAASRYIPRARKLVRHSHGYSWR | soluble
MTDHSNTRVVVGMSGGVDSSVVALLLKQQGYDVVGVFMKNWDDTDENGVCTATEDYKDVAKVADKIGIPYYSINFEKEYWDRVFTYFLDEYKKGRTPNPDVICNKEIKFKAFLDYAMDLGADYIATGHYARLQHDEDGTMHLLRGVDSNKDQTYFLSQLDSKTLQKVMFPLGEMVKPDVRKLALNAGLATAKKKDSVGICFIGEKNFKEFLGHYLPATPGKMMTFDGQVKGEHAGLMYYTIGQRRGLGIGGDGEDNEPWFVVGKDLKKNILYVGKGYHNPHLYATHLKASDLHFVTDEDLGNDFHVTAKFRYRQKDSGVTVHFNDDHTEVTVTFDDPVRAITPGQAVVFYNGEECLGSGMIDAAYNDERVLQYVLEHHHHHH | not soluble
MGHHHHHHSHMEKSEPVDQRRHTAGKAIVDSRSAQPKETSEERKARLSEWKAGKGRVLKRPPNSVVTQHEPAGQNEKPVGSFWTTMAEEDEQRLFTEKVNNTFSECLNLINEGCPKEDILVTLNDLIKNIPDAKKLVKYWICLALIEPITSPIENIIAIYEKAILAGAQPIEEMRHTIVDILTMKSQEKANLGENMEKSCASKEEVQEVSIEDTGVDVDPEKLEMESKLHRNLLFQDCEKEQDNKTKDPTHDVKTPNTETRTSCLIKYNVSTTPYLQSVKKKVQFDGTNSAFKELKFLTPVRRSRRLQEKTSKLPDMLRDHYPCVSSLEQLTELGRETDAFVCRPNAALCRVYYEADTT | not soluble
PPKIRVVVRKRPISKKERERGDDDVVDVLAKNNTVVVNEEKVKVDLTKYLEKHAFKFDESLDENVSNEAVYQLTVGPLVRTLFRNGRASCFAYGQTGSGKTYTMSPLPIRASADIFTFMAQQQYRDISLCVSCFEIYGNKVFDLLNARKKLNILEDGKKKVVVVGLKEFGVDDVDGVKALIEESAKNRSTGSTAANADSSRSHSIMQFALKRAAPAPAGGFRRGEDAPEPRVVGKISFIDLAGSERGADTFDNNRQTRLEGAEINKSLLALKECIRALDSDARHVPFRGSKLTAVLRDSFVGDQARTVMIANISPCSSSVEHTLNTLRYADRVKELRKDKADRT | soluble
GPGSMSTFETVKEEKLEFEKNCDQHIYEKALLTFKGVDGMDVYNCSAPFKYEGRTHIFGRVEKRLEWANSYVRLFVETNKDEFTLVPGNMVWQLEDPFVSNIDNEMFLGGTHIRKTNNRVFTYYCDFFRGTAENLSYFTTGPDNMKDIRLVKLANNKIGVFSRPKTAAHAFIGFTVINNVMELTPTVIEEAPPLNVIHTGAWGGVNQAYLLSSDKLGCISHYSYIDKDEDGNEITVYTNYSFVLNPYLREVEDARIIGTKGCYPKCSPKVHKLLDCAFSSGIVMREDGRCDLYSGLGDAHEGRITIDYPFEGHGTLIDNLHF | soluble
MGSDKIHHHHHHMTAPSPEAWLYMLLQTARELELPWLDLIVDQAEMGARWQSRVGALYPPRMLLQDTPHAEAADEGPVLVRLDANQPQTRLLKLLRQWQGQPRVLALFSGWDYDQLAERLTLCMQASWDKGLQQGVLRFHDPRLFAAVVDALDEPRRQLLLEPAVQWHWLDRDGHARMLDATALQSLPPLEWVHDTLTLEQPHIDALACWHLAETWRQNHLLVPQLYGLDSEEELVRRLAQAHQAADKAKLWSEAERIPVVERMLRENA | not soluble
MGTTVEGGRSGPRYVQVADEIVQQIRAGVLKPGDMVPSESEMVDRYGVSGGTIRKAMVEVRASGLVETRHGKGSIVKDRPPVRHRSSDRFRRSLRQGGKAAYLAESEQSGATAKVSVLYIGPMEAPADAAQRLGVPAGTQVLARRRLYFRNGTPVETASSYLPWDVVKDIPELFAENPGGGGIYARLEDHGHEFAEFVETLQARPASKAEATELALSPGAPVVHLIREARTAAGLVVEVCDTLMAADQFVFEYRIPAAD | not soluble
MIITEQNMPEEKLQTLSLQVINGSELESGRAARCLFTQQGNVGHAPECHWSVQDRQQSIPAQAFTVILHDGTFCLRPQTAQLWLNQAKVTATSDLIQLRQGDEIQIGRLMVRVHLNRGDIPHYDEEMATPETIVTNRDMLTDTLLSTEGAPHYPGMTHRHQLADTVVNGFSADPLQALQSESLITTGDPLSGIAAVRPSAPLSDPASNGGINTPFMDLPPIYASPGDHNDDISAAEMAQRHLAVTPLLRGLGGSLTVSNSDDADDFLEEAGRTLQAAIKGLLDLQQQRNSLSDKHLRPLEDNPLRLNMDYATALDVMFAEGKSPVHLAAPAAVSESLRNVRHHEEANRAAIVESLRVLLDAFSPQNLLRRFVQYRRSHELRQPLDDAGAWQMYSHYYEELASDRQQGFEMLFNEVYAQVYDRVLREKQREPEA | soluble
MKLDAKSTIETGKAILGIELGSTRIKAVLIDQENKPIAQGSHTWENQLVNGLWTYSIDAIWSGLQDCYADLRSNVKKLYDTEIETLAAIGVSAMMHGYMPFNEKEEILVPFRTWRNTNTGRAAAELSELFVYNIPLRWSISHLYQAILDNEAHVKDIKFLTTLAGYVHWQITGEKVLGIGDASGMLPIDPTTNNYSAEMVAKFNNLIASKEYSWKLEDILPKVLSAGENAGVLTPEGCKKLDASGHLKAGIPVCPPEGDAGTGMVATNAVKQRTGNVSAGTSSFSMIVLEKELSKPYEMIDMVTTPDGSLVAMVHCNNCTSDLNAWVNLFKEYQELLGIPVDMDELYGKLYNIALTGDTDCGGLLSYNYISGEPVTGLAEGRPLFVRSANDKFNLANFMRAHLYASVGVLKIGNDILFNEEKIKVDRITGHGGLFRTKGVGQRVLAAAINSPISVMETAGEGGAWGIALLGSYLVNNKKGQSLADFLDESVFVSDAGVEVSPTPEDVAGFNTYIESYKAGLPIEEAAVKFKLEHHHHHH | soluble
MSIQHFRVALIPFFAAFCLPVFAHPETLVKVKDAEDQLGARVGYIELDLNSGKILESFRPEERFPMMSTFKVLLCGAVLSRIDAGQEQLGRRIHYSQNDLVEYSPVTEKHLTDGMTVRELCSAAITMSDNTAANLLLTTIGGPKELTAFLHNMGDHVTRLDRWEPELNEAIPNDERDTTMPVAMATTLRKLLTGELLTLASRQQLIDWMEADKVAGPLLRSALPAGWFIADKSGAGERGSRGIIAALGPDGKPSRIVVIYTTGSQATMDERNRQIAEIGASLIKHW | soluble
MSLSSAYQLVIFDWEGTIADTLGVILHTVATEAKMLGFGDIDPYQARKYVDLGLVQAVKKTLPNLTAGQQEDLLQAVQSAMISRPTEVRLIPGVLEFIQQLHQAKVDLAIATNKGHNSLIRALQATELDQLFKVTRSAGQVPAKPCPQMLEEIMEEFGRDPSSTLMIGDSTTDMEMAKRINVNAIGMDFYHQQEDALKAAGALAVFDDYKLLSAYLMLPEAEGHHHHHH | soluble
MGSSHHHHHHSSGLVPRGSHMILTLTLNPSVDISYPLTALKLDDVNRVQEVSKTAGGKGLNVTRVLAQVGEPVLASGFIGGELGQFIAKKLDHADIKHAFYNIKGETRNCIAILHEGQQTEILEQGPEIDNQEAAGFIKHFEQLLEKVEAVAISGSLPKGLNQDYYAQIIERCQNKGVPVILDCSGATLQTVLENPYKPTVIKPNISELYQLLNQPLDESLESLKQAVSQPLFEGIEWIIVSLGAQGAFAKHNHTFYRVNIPTISVLNPVGSGDSTVAGITSAILNHENDHDLLKKANTLGMLNAQEAQTGYVNLNNYDDLFNQIEVLEV | soluble
MGSDKIHHHHHHMRVYFDNNATTRVDDRVLEEMIVFYREKYGNPNSAHGMGIEANLHMEKAREKVAKVLGVSPSEIFFTSCATESINWILKTVAETFEKRKRTIITTPIEHKAVLETMKYLSMKGFKVKYVPVDSRGVVKLEELEKLVDEDTFLVSIMAANNEVGTIQPVEDVTRIVKKKNKETLVHVDAVQTIGKIPFSLEKLEVDYASFSAHKFHGPKGVGITYIRKGVPIRPLIHGGGQERGLRSGTQNVPGIVGAARAMEIAVEELSEAAKHMEKLRSKLVSGLMNLGAHIITPLEISLPNTLSVSFPNIRGSTLQNLLSGYGIYVSTSSACTSKDERLSHVLDAMGVDRRIAQGAIRISLCKYNTEEEVDYFLKKIEEILSFLDLTGNNRR | not soluble
MGTPVVWEGNIGNPPEHKSFPNGNNEPRQLLRLNVMFDNSIPDGSGGYKDRGGFWANVEWWHPDAERFAQLFSKGMRVVVTGRAIMDTWKDKETGDDVWALKVEANRVAILPHRVNQVTMTQSNNTGQRQNAQQNNRPERQQNSAQQPGQHTDDLSHYGNGFDDDIPVLEHHHHHH | soluble
LLESRELVEKIVSILEEKKAKDLNIIDIREISILADYFVICSGTSTTHIKTLADEVEEKMLEAGIELLHKEGYNSARWILLDYGEVVVHIFHEEDRQFYNLERLWADGVMKHRQ | soluble
